Patent US20230374157A1

How the values were obtained:
[1] = biological target: His-tagged human HER3 extracellular domain (Acro ER3-H5223) (human) (UniProt P21860); test: BLI, SI-1R12 covalently coupled to AR2G sensors, monomeric HER3 ECD in solution, 1:1 fit
[2] = biological target: His-tagged human EGFR extracellular domain (expressed and purified in-house) (human) (UniProt P00533); test: BLI, antibody on AHC tips, monomeric EGFR ECD in solution, 1:1 fit
[3] = biological target: His-tagged human HER3 extracellular domain (Acro ER3-H5223) (human) (UniProt P21860); test: BLI, antibody on AHC tips, monomeric HER3 ECD in solution, 1:1 fit
[4] = biological target: human His-tagged HER3 extracellular domain (in-house expressed) (human) (UniProt P21860); test: BLI sandwich assay, antibody held on immobilized biotinylated EGFR, 500 nM HER3 ECD in solution, 1:1 fit
[5] = biological target: biotinylated human EGFR extracellular domain (Acro EGF-H82E3) (human) (UniProt P00533); test: BLI avidity format, biotinylated EGFR ECD on SA sensors, antibody in solution, 1:1 fit

Chain of SI-1X4.2, nimotuzumab-based EGFR x HER3 bispecific antibody with MM-111 anti-HER3 scFv (heavy): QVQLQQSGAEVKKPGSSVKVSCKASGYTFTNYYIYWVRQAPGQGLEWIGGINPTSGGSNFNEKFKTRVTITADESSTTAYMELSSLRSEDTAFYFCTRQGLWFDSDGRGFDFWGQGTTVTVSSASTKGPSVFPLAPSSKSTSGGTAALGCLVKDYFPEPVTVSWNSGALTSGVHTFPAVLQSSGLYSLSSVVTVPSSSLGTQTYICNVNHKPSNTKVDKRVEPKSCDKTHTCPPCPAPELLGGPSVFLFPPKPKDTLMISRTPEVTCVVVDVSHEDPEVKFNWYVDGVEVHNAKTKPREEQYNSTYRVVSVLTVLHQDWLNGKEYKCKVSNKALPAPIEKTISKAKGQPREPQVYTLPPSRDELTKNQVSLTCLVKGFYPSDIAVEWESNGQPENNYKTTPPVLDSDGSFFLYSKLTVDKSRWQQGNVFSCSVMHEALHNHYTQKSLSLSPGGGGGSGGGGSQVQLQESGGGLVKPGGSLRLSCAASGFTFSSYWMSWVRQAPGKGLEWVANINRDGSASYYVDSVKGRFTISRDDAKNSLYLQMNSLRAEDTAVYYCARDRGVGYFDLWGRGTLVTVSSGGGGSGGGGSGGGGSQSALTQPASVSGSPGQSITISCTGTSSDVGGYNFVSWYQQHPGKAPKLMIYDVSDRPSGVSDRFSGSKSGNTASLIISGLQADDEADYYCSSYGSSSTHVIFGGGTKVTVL
Chain of SI-1X4.2, nimotuzumab-based EGFR x HER3 bispecific antibody with MM-111 anti-HER3 scFv (light): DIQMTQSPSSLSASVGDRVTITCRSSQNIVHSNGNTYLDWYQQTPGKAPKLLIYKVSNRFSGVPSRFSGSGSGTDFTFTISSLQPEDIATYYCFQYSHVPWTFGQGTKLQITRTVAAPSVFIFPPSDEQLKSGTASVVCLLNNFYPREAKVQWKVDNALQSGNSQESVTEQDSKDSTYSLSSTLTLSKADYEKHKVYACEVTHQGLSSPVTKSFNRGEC

Substance | Kd [1] | koff [1] | kon [1] | Kd [2] | Kd [3] | Kd [4] | koff [2] | kon [2] | koff [3] | kon [3] | Kd [5] | koff [5] | kon [5] | koff [4] | kon [4]
SI-1R12 (MM-111), HER2 x HER3 bispecific human serum albumin fusion (bispecific antibody) | 95.6 nM | 0.0422 s⁻¹ | 441000 M⁻¹ s⁻¹ |  |  |  |  |  |  |  |  |  |  |  | 
SI-1X2, panitumumab-based EGFR x HER3 bispecific antibody with MM-111 anti-HER3 scFv |  |  |  | 2.77 nM | 131 nM | 770 nM |  |  |  |  |  |  |  |  | 
SI-1X4.2, nimotuzumab-based EGFR x HER3 bispecific antibody with MM-111 anti-HER3 scFv |  |  |  | 18.8 nM | 146 nM | 165 nM | 0.00202 s⁻¹ | 108000 M⁻¹ s⁻¹ | 0.038 s⁻¹ | 260000 M⁻¹ s⁻¹ | 0.398 nM | 4.25e-05 s⁻¹ | 107000 M⁻¹ s⁻¹ | 0.0459 s⁻¹ | 279000 M⁻¹ s⁻¹
SI-1X6.4, bispecific tetravalent anti-EGFR x HER3 antibody (cetuximab variable regions with mouse framework, MM-111 anti-HER3 scFv) (bispecific antibody) |  |  |  | 5.38 nM | 107 nM | 617 nM |  |  |  |  |  |  |  |  | 
